± gives the half width of the 95% confidence interval.
Legend:
[1] = folding stability dG unfold (combined trypsin and chymotrypsin); higher = more stable
Procedure, shortened: (§1)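 Mini-proteins designed to be under 80 residues and free of cysteine were carried in a PA-tagged cDNA display construct and digested with trypsin and with chymotrypsin. Each protease was applied at 11 threefold-diluted concentrations, alongside a no-protease condition, before sequencing. K50 came from Bayesian fitting of the sequencing counts, and unfolding free energy was obtained by comparing it with a sequence-predicted unfolded-state K50 and a shared folded-state K50, for each protease separately or for both together. Designs were retained only if their AlphaFold2 dimer inter-PAE exceeded 15.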

[2] = folding stability dG unfold from trypsin proteolysis; higher = more stable
Procedure, shortened: as §1

[3] = folding stability dG unfold from chymotrypsin proteolysis; higher = more stable
Procedure, shortened: as §1

Row | Sequence | folding stability dG unfold [1] | folding stability dG unfold [2] | folding stability dG unfold [3]
1 | SAGGSAGGSAGKFKLKIKEVHWRENPNGYEQVKVEIKIPGEEKKIWFPPGMSIDQILDQLSAGGSAGGSAGG [r11_1056_TrROS] | 0.732 ± 0.12 kcal/mol | 0.415 ± 0.081 kcal/mol | 1.13 ± 0.18 kcal/mol
2 | SAGGSAGGSAGKIEAFPGKNTVLLKISIPRRDPNSDSIYTLHAVIPATPEQAKKFLELGISAGGSAGGSAGG [r11_389_TrMRF] | 0.97 ± 0.1 kcal/mol | 0.89 ± 0.041 kcal/mol | 0.899 ± 0.14 kcal/mol
3 | SAGGSAGGSAGKIKVEKDKKTNEYRVTIELFDKNGKPVKKIEITVKKEDLPKIKELLKKLSAGGSAGGSAGG [r11_77_TrROS_Hall] | 3.4 ± 0.076 kcal/mol | 2.96 ± 0.069 kcal/mol | 3.6 ± 0.1 kcal/mol
4 | SAGGSAGGSAGKIPEIIKKTNAVEKDGKIFLGIKTDGKYYLIELEKKTLKIKKIEPFPDKSAGGSAGGSAGG [r11_808_TrMRF] | 0.488 ± 0.085 kcal/mol | -0.135 ± 0.14 kcal/mol | 0.776 ± 0.12 kcal/mol
5 | SAGGSAGGSAGKIVIVVDEDGNYTLKVNGKTYVFKTPEEAKAAAEELKKAGIEIEIVEVPSAGGSAGGSAGG [r17_35_TrROS_Hall] | 4.85 ± 0.17 kcal/mol | 3.6 ± 0.21 kcal/mol | 4.96 ± 0.16 kcal/mol
6 | SAGGSAGGSAGKIWIYNPENGWIFEISIQPHPMPNDDGEPQWMFSIDVEVYPPGKPGQPISAGGSAGGSAGG [r11_531_TrROS] | 3.59 ± 0.065 kcal/mol | 2.59 ± 0.079 kcal/mol | 4.1 ± 0.066 kcal/mol
7 | SAGGSAGGSAGKIYIVKLPNETIEIEFEGTEEEAIDFAIKELEKLFPKPIPKDDIIILGGSAGGSAGGSAGG [r11_1028_TrMRF] | 1.71 ± 0.14 kcal/mol | 1.76 ± 0.074 kcal/mol | 1.65 ± 0.043 kcal/mol
8 | SAGGSAGGSAGKKIKLPKELKGKKIEVKEVEIEVEVNGKKYKFKAKIVKFDGKIIAIELESAGGSAGGSAGG [r11_21_TrROS_Hall] | 2.98 ± 0.17 kcal/mol | 1.36 ± 0.069 kcal/mol | 3.31 ± 0.055 kcal/mol
9 | SAGGSAGGSAGKKIKVKIEVVYTDEDGNKHKVEMEKEIELKPGDKITLPPEAITRVEILPSAGGSAGGSAGG [r11_664_TrROS_Hall] | 1.57 ± 0.19 kcal/mol | 0.832 ± 0.17 kcal/mol | 1.95 ± 0.12 kcal/mol
10 | SAGGSAGGSAGKKITIELPEGVKVYKLPNENDYIIVEDEKTKEKYIFKIKDGKVELIEKLSAGGSAGGSAGG [r11_1036_TrROS_Hall] | 1.47 ± 0.14 kcal/mol | 1.01 ± 0.054 kcal/mol | 1.86 ± 0.15 kcal/mol
11 | SAGGSAGGSAGKKKGKKPKKIKVKKIKLIVKDKETNEYYEKEITVNKDGTLTIKVKKLKKSAGGSAGGSAGG [r11_883_TrROS_Hall] | 2.75 ± 0.1 kcal/mol | 1.85 ± 0.083 kcal/mol | 3.07 ± 0.089 kcal/mol
12 | SAGGSAGGSAGKKKKKKLVRVRITYKNGKKKEFVFKTKEEAEKALKEEFNIEKIEIEEIPSAGGSAGGSAGG [r17_508_TrROS_Hall] | 3.43 ± 0.16 kcal/mol | 2.84 ± 0.1 kcal/mol | 3.66 ± 0.068 kcal/mol
13 | SAGGSAGGSAGKKKLTVTVKKKKPAKEKKKVKTKVVKEKKLELSEEELKKLLDELKELLESAGGSAGGSAGG [r11_418_TrROS_Hall] | 0.321 ± 0.16 kcal/mol | 0.624 ± 0.079 kcal/mol | -0.447 ± 0.14 kcal/mol
14 | SAGGSAGGSAGKKLKPFKVVEVKEPVKEGDVIEVENEATGELYRFTVVNGEIKIEKVKLDSAGGSAGGSAGG [r11_94_TrROS_Hall] | 0.365 ± 0.29 kcal/mol | 0.225 ± 0.053 kcal/mol | 0.442 ± 0.21 kcal/mol
15 | SAGGSAGGSAGKKPPKVKVLELTFTLEDGYKVTVRLVENEDGELFLEIRIEPLPELPEEKSAGGSAGGSAGG [r11_998_TrROS_Hall] | 2.94 ± 0.13 kcal/mol | 1.79 ± 0.16 kcal/mol | 3.36 ± 0.14 kcal/mol
16 | SAGGSAGGSAGKKPPVYRLVVENEDGEKYEFEFKSLEDLKAALESEEVRKKIKKVKIEKVSAGGSAGGSAGG [r11_1047_TrROS_Hall] | 2.6 ± 0.15 kcal/mol | 2.11 ± 0.09 kcal/mol | 3.02 ± 0.11 kcal/mol
17 | SAGGSAGGSAGKKSYVLIKVKNPKTKETHTIVVPEENLEEVLKALASQPNVKVVDIERFPSAGGSAGGSAGG [r11_692_TrROS_Hall] | 3.95 ± 0.12 kcal/mol | 3.65 ± 0.19 kcal/mol | 4.11 ± 0.065 kcal/mol
18 | SAGGSAGGSAGKKVKISLILIAKSPEEAEEAAKAIKEAFGSEDVEVDIIEIPAKLGPGKLSAGGSAGGSAGG [r17_285_TrMRF] | 0.378 ± 0.26 kcal/mol | 0.319 ± 0.072 kcal/mol | 0.252 ± 0.12 kcal/mol
19 | SAGGSAGGSAGKKYKVKVILQPKGEDKPLEIEIEVESLEEAKELLEKAFPDTRIRIDVIESAGGSAGGSAGG [r17_428_TrMRF] | 2.59 ± 0.18 kcal/mol | 1.99 ± 0.098 kcal/mol | 2.93 ± 0.088 kcal/mol
20 | SAGGSAGGSAGKLPEGMKMEVRPKTIFNEDGYMIKITIIRAPDPNILAINIEIIPPGDPISAGGSAGGSAGG [r11_338_TrROS] | 2.14 ± 0.24 kcal/mol | 2.04 ± 0.12 kcal/mol | 1.89 ± 0.14 kcal/mol
21 | SAGGSAGGSAGKLRVRIPPRLRERLRKRKRVRLRLRVEEREVRDEDGNLRRVRRLEIELESAGGSAGGSAGG [r11_113_TrROS_Hall] | 1.42 ± 0.17 kcal/mol | 0.819 ± 0.15 kcal/mol | 2.03 ± 0.19 kcal/mol

Row | Sequence | folding stability dG unfold [1] | folding stability dG unfold [2] | folding stability dG unfold [3]
22 | SAGGSAGGSAGKNWFFRIKIKYPNGEERTIYIPGTLDEIKEELPGPIKNIDIEPMPAEDMSAGGSAGGSAGG [r11_596_TrROS] | 1.52 ± 0.078 kcal/mol | 1.05 ± 0.045 kcal/mol | 1.76 ± 0.1 kcal/mol
23 | SAGGSAGGSAGKPEFELIAKIEVNGKTYYILRNKETGEYLIYDLDTGKKYTIRKDDPNLLSAGGSAGGSAGG [r11_1007_TrROS_Hall] | 2.78 ± 0.34 kcal/mol | 2.47 ± 0.16 kcal/mol | 2.95 ± 0.066 kcal/mol
24 | SAGGSAGGSAGKPEIEMEIETRTVRLPDGYLLRFSRMRITLPDGSKFEFLSVEIIRLEDLSAGGSAGGSAGG [r17_312_TrROS_Hall] | 5.38 ± 0.36 kcal/mol | 3.88 ± 0.31 kcal/mol | 5.56 ± 0.14 kcal/mol
25 | SAGGSAGGSAGKPKKPKLVKVKITLPNGEKKEIITEDVEEVIKEINEEFGAIKIEVEEIKSAGGSAGGSAGG [r17_508_TrMRF] | 2.76 ± 0.17 kcal/mol | 2.68 ± 0.12 kcal/mol | 2.8 ± 0.14 kcal/mol
26 | SAGGSAGGSAGKPKTKTITLTLLVYDEETGEFYRIEARIEINEDGSITIEEKIEKLPLKPSAGGSAGGSAGG [r11_941_TrROS_Hall] | 3.91 ± 0.12 kcal/mol | 2.81 ± 0.13 kcal/mol | 4.17 ± 0.1 kcal/mol
27 | SAGGSAGGSAGKPKTLEVEMLVLDPETRRLYRVRMEIVLDPEDEGKLTIRLEIEELELPDSAGGSAGGSAGG [r17_241_TrROS_Hall] | 4.27 ± 0.14 kcal/mol | 3.42 ± 0.081 kcal/mol | 4.5 ± 0.096 kcal/mol
28 | SAGGSAGGSAGKPKTVEIEVTNEDGSKYKAKVVEVDEEKGYVLIKITNPDGSEQTILIKLSAGGSAGGSAGG [r11_742_TrROS_Hall] | 2.6 ± 0.1 kcal/mol | 1.81 ± 0.06 kcal/mol | 2.97 ± 0.033 kcal/mol
29 | SAGGSAGGSAGKPKVKKITLKNPATGETVEAEVVEVDGYLVVRVRNKDDPEKTETFVFKLSAGGSAGGSAGG [r17_73_TrROS_Hall] | 2.48 ± 0.12 kcal/mol | 2.17 ± 0.051 kcal/mol | 2.58 ± 0.049 kcal/mol
30 | SAGGSAGGSAGKPVLKLTVTLPNGLTVTVTINPDGEITVEIRPLPPPPPPVRTYSDEELKSAGGSAGGSAGG [r11_1015_TrROS_Hall] | 2.1 ± 0.31 kcal/mol | 2.29 ± 0.19 kcal/mol | 2.75 ± 0.16 kcal/mol
31 | SAGGSAGGSAGKPVTLTDANGTPYSVSQVTTDPNSATVTATFTSPTSSTTHTATYPVTPASAGGSAGGSAGG [r11_290_JUSTAS] | 0.791 ± 0.14 kcal/mol | 1.03 ± 0.046 kcal/mol | 0.728 ± 0.13 kcal/mol
32 | SAGGSAGGSAGKRRIYILGMDTVQVAEYLRDTGPDIKVEVFNPGQPMEEFQDNYDIVIFVSAGGSAGGSAGG [r17_225_TrROS] | 2.04 ± 0.16 kcal/mol | 1.59 ± 0.035 kcal/mol | 2.33 ± 0.1 kcal/mol
33 | SAGGSAGGSAGKTIKILLVVKDPETNEYYFLVMEIHLDENGNLHMKIKVFPTKEDAEKALSAGGSAGGSAGG [r11_792_TrROS_Hall] | 4.06 ± 0.15 kcal/mol | 3.66 ± 0.19 kcal/mol | 4.15 ± 0.085 kcal/mol
34 | SAGGSAGGSAGKTLVFKTKEEALKAIEEEAKKKGYKKVKIEITEVGPDGKVKVKVKIEKKSAGGSAGGSAGG [r17_430_TrROS_Hall] | 1.3 ± 0.19 kcal/mol | 0.763 ± 0.047 kcal/mol | 1.34 ± 0.18 kcal/mol
35 | SAGGSAGGSAGKTVVIEIKGMSKEQVLNLIKELAEKYPNSKIIITNENGEKIEINVKDLKSAGGSAGGSAGG [r11_541_TrROS_Hall] | 2.85 ± 0.22 kcal/mol | 1.95 ± 0.13 kcal/mol | 3.34 ± 0.12 kcal/mol
36 | SAGGSAGGSAGKTYTLTITTENGKTITLPKDVEVVYDEKTGYLYIKNKKTNKVIKVKLKDSAGGSAGGSAGG [r17_432_TrROS_Hall] | 2.19 ± 0.079 kcal/mol | 2.13 ± 0.051 kcal/mol | 2.21 ± 0.059 kcal/mol
37 | SAGGSAGGSAGKVELIETEDKLYLVVEVDGKKEVIEVSKEELEELLAALPPDAKVTILKPSAGGSAGGSAGG [r11_374_TrROS_Hall] | 2.77 ± 0.16 kcal/mol | 3.17 ± 0.21 kcal/mol | 2.49 ± 0.12 kcal/mol
38 | SAGGSAGGSAGKVIIIKVPKKDMTPEEVEKLAKELKEKFPDAKITVIEVKKDGYIIIKIDSAGGSAGGSAGG [r11_365_TrROS_Hall] | 2.47 ± 0.11 kcal/mol | 1.91 ± 0.063 kcal/mol | 2.73 ± 0.079 kcal/mol
39 | SAGGSAGGSAGKWIMFDSPEDIEEKLKENGYRIKNIEPQKMGGGPHVYVPIEIKPPPEDKSAGGSAGGSAGG [r11_141_TrROS] | 0.155 ± 0.38 kcal/mol | -0.506 ± 0.54 kcal/mol | 0.43 ± 0.39 kcal/mol
40 | SAGGSAGGSAGKYYIIKYPGKVEIIPESEVEKIIEANPNVEIEEFESKEEALKALEKALSSAGGSAGGSAGG [r11_60_TrMRF] | 4.22 ± 0.09 kcal/mol | 3.95 ± 0.21 kcal/mol | 4.24 ± 0.083 kcal/mol
41 | SAGGSAGGSAGLEALKKALEALPPGEERELEIEVEVDGKLYRFRIRVEKTEDGEYKATIELESAGGSAGGSA [r18_493_TrROS_Hall] | 4.76 ± 0.16 kcal/mol | 4.56 ± 0.34 kcal/mol | 4.88 ± 0.084 kcal/mol

— the supplement of paper PMC12764529
